Source: IntAct's records for PubMed 29039417

B1: Protein PTHB1 (Homo sapiens), Q3SYG4 (parent)
chain: MSLFKARDWWSTILGDKEEFDQGCLCLANVDNSGNGQDKIIVGSFMGYLRIFSPHPAKTGDGAQAEDLLLEVDLRDPVLQVEVGKFVSGTEMLHLAVLHSRKLCVYSVSGTLGNVEHGNQCQMKLMYEHNLQRTACNMTYGSFGGVKGRDLICIQSMDGMLMVFEQESYAFGRFLPGFLLPGPLAYSSRTDSFLTVSSCQQVESYKYQVLAFATDADKRQETEQQKLGSGKRLVVDWTLNIGEQALDICIVSFNQSASSVFVLGERNFFCLKDNGQIRFMKKLDWSPSCFLPYCSVSEGTINTLIGNHNNMLHIYQDVTLKWATQLPHIPVAVRVGCLHDLKGVIVTLSDDGHLQCSYLGTDPSLFQAPNVQSRELNYDELDVEMKELQKIIKDVNKSQGVWPMTEREDDLNVSVVVSPNFDSVSQATDVEVGTDLVPSVTVKVTLQNRVILQKAKLSVYVQPPLELTCDQFTFEFMTPDLTRTVSFSVYLKRSYTPSELEGNAVVSYSRPTDRNPDGIPRVIQCKFRLPLKLICLPGQPSKTASHKITIDTNKSPVSLLSLFPGFASQSDDDQVNVMGFHFLGGARITVLASKTSQRYRIQSEQFEDLWLITNELILRLQEYFEKQGVKDFACSFSGSIPLQEYFELIDHHFELRINGEKLEELLSERAVQFRAIQRRLLARFKDKTPAPLQHLDTLLDGTYKQVIALADAVEENQGNLFQSFTRLKSATHLVILLIALWQKLSADQVAILEAAFLPLQEDTQELGWEETVDAAISHLLKTCLSKSSKEQALNLNSQLNIPKDTSQLKKHITLLCDRLSKGGRLCLSTDAAAPQTMVMPGGCTTIPESDLEERSVEQDSTELFTNHRHLTAETPRPEVSPLQGVSE
partner: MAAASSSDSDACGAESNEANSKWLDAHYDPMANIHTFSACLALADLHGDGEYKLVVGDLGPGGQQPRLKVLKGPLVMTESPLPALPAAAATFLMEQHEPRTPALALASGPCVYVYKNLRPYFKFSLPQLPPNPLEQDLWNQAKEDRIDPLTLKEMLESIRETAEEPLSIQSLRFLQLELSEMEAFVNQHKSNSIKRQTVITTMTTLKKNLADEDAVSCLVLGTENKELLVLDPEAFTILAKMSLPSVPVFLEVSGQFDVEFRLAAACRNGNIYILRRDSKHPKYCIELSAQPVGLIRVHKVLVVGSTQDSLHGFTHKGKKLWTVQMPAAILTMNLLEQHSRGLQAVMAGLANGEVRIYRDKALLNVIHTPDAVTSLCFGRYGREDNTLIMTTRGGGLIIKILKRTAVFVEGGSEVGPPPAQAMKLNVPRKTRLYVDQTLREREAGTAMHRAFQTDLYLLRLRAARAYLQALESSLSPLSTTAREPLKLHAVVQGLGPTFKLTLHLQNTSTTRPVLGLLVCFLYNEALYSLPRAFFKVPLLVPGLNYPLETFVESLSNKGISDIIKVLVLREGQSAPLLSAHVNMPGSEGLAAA

Variants of: B1
Conditions: with bbs1_human BBS1, Q8NFJ9

effect of a mutation on the interaction	Variant
with no effect	V706K
with no effect	I707A
with no effect	I707E
with no effect	I707K
with no effect	A708E
with no effect	A708K
with no effect	L709A
with no effect	L709E
with no effect	L709K
with no effect	A710E
with no effect	A710K
with no effect	D711A
with no effect	D711E
with no effect	D711K
with no effect	A712E
with no effect	A712K
with no effect	V713A
with no effect	V713E
with no effect	V713K
with no effect	E714A
with no effect	E714K
with no effect	E715A
with no effect	E715K
with no effect	N716A
with no effect	N716E
with no effect	N716K

effect of a mutation on the interaction	Variant
with no effect	Q717A
with no effect	Q717E
with no effect	Q717K
with no effect	G718A
with no effect	G718E
with no effect	G718K
disrupting interaction strength	G718S
with no effect	N719A
with no effect	N719E
with no effect	N719K
with no effect	L720A
with no effect	L720E
with no effect	L720K
with no effect	F721A
with no effect	F721E
with no effect	F721K
disrupting interaction strength	F721S
with no effect	Q722A
with no effect	Q722E
with no effect	Q722K
disrupting interaction strength	Q722T
disrupting interaction strength	S723A
with no effect	S723E
with no effect	S723K
with no effect	F724A
with no effect	F724E

effect of a mutation on the interaction	Variant
with no effect	F724K
with no effect	T725A
with no effect	T725E
with no effect	T725K
with no effect	R726A
with no effect	R726E
with no effect	R726K
with no effect	L727A
with no effect	L727E
with no effect	L727K
with no effect	K728A
with no effect	K728E
with no effect	S729A
with no effect	S729E
with no effect	S729K
with no effect	A730E
with no effect	A730K
with no effect	T731A
with no effect	T731E
with no effect	T731K
with no effect	H732A
with no effect	H732E
with no effect	H732K
disrupting interaction strength	L733A
with no effect	L733E
with no effect	L733K

effect of a mutation on the interaction	Variant
with no effect	V734A
with no effect	V734E
disrupting interaction strength	V734G
with no effect	V734K
with no effect	I735A
with no effect	I735E
disrupting interaction strength	I735K
with no effect	L736A
with no effect	L736E
with no effect	L736K
with no effect	L737A
with no effect	L737E
with no effect	L737K
disrupting interaction strength	I738A
with no effect	I738E
disrupting interaction strength	I738K
with no effect	A739E
with no effect	A739K
with no effect	L740A
with no effect	L740E
with no effect	L740K
with no effect	W741A
with no effect	W741E
with no effect	W741K
disrupting interaction strength	W741S
with no effect	Q742A

effect of a mutation on the interaction	Variant
with no effect	Q742E
with no effect	Q742K
disrupting interaction strength	Q742L
with no effect	K743A
with no effect	K743E
with no effect	L744A
with no effect	L744E
with no effect	L744K
with no effect	S745A
with no effect	S745E
with no effect	S745K
with no effect	A746E
with no effect	A746K
with no effect	D747A
with no effect	D747E
disrupting interaction strength	D747K
disrupting interaction strength	D747N
with no effect	Q748A
with no effect	Q748E
with no effect	Q748K
with no effect	V749A
disrupting interaction strength	V749E
with no effect	V749K
with no effect	A750E
with no effect	A750K
with no effect	I751A

effect of a mutation on the interaction	Variant
with no effect	I751E
with no effect	I751K
with no effect	L752A
with no effect	L752E
with no effect	L752K
with no effect	E753A
disrupting interaction strength	E753K
with no effect	A754E
disrupting interaction strength	A754G
with no effect	A754K
with no effect	A755E
with no effect	A755K
with no effect	F756A
with no effect	F756E
with no effect	F756K
with no effect	L757A
with no effect	L757E
disrupting interaction strength	L757I
with no effect	L757K
with no effect	P758A
with no effect	P758E
with no effect	P758K
with no effect	L759A
with no effect	L759E
with no effect	L759K
with no effect	Q760A

effect of a mutation on the interaction	Variant
with no effect	Q760E
with no effect	Q760K
with no effect	E761A
with no effect	E761K
with no effect	D762A
with no effect	D762E
with no effect	D762K
with no effect	T763A
with no effect	T763E
with no effect	T763K
with no effect	Q764A
with no effect	Q764E
with no effect	Q764K
with no effect	E765A
with no effect	E765K
with no effect	L766A
with no effect	L766E
with no effect	L766K
with no effect	G767A
with no effect	G767E
with no effect	G767K
with no effect	W768A

Variants of: B1
Conditions: with bbs1_human BBS1, Q8NFJ9
Remark: another data set of the same source

effect of a mutation on the interaction	Variant
disrupting interaction strength	S745E
